{
  "source": "patent US20120101037A1",
  "about": "(Hoffmann-La Roche, published 2012)",
  "binders": {"B1": {"name": "Ac-(D)-3-Pya-Ala-Glu-Gly-Thr-Phe-Ile-Ser-Asp-Tyr-Ser-Ile-Ala-Met-Asp-Lys-Ile-His-Gln-Gln-Asp-Phe-Val-Asn-Trp-Leu-Leu-Ala-Gln-Lys-NH2 (peptide)", "peptide": "AAEGTFISDYSIAMDKIHQQDFVNWLLAQK", "modifications": "position 1 is acetylated D-3-pyridylalanine (Ac-(D)3Pya); C-terminal amide (NH2)"}},
  "note": "Non-standard residues stand in square brackets, D forms with d. Groups on a side chain read outwards from the residue. Primed or numbered codes have the meaning given here. *: point of attachment. dPhe(3,5-F2) = N[C@H](Cc1cc(F)cc(F)c1)C(=O)O; dPhe(3-Cl) = N[C@H](Cc1cccc(Cl)c1)C(=O)O; dPhe(4-Cl) = N[C@H](Cc1ccc(Cl)cc1)C(=O)O; dPhe(2-Cl) = N[C@H](Cc1ccccc1Cl)C(=O)O; dPhe(3-F) = N[C@H](Cc1cccc(F)c1)C(=O)O; Desaminotyrosyl = O=C(CCc1ccc(O)cc1)*; dPhe(2-F) = N[C@H](Cc1ccccc1F)C(=O)O; dPhe(3,4,5-F3)′ = not defined here; Hydrocinnamoyl = O=C(CCc1ccccc1)*; SSA = succinimidyl succinamide",
  "data": [
    {"target": "T1, human GIPR (glucose-dependent insulinotropic polypeptide receptor) (human, UniProt P48546 22-466)", "T1 sequence (looked up)": "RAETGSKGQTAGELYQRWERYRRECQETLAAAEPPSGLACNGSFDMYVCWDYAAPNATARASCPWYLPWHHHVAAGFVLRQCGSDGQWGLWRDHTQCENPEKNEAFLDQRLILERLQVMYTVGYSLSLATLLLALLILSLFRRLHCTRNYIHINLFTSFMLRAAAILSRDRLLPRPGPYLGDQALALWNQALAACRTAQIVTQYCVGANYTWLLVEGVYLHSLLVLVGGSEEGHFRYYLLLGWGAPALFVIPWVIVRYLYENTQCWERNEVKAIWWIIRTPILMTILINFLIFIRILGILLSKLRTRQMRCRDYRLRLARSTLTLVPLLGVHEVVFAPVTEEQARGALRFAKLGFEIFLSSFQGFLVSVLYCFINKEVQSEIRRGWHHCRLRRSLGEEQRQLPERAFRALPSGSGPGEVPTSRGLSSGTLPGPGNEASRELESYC", "experiment": "cell-based or functional assay", "units": {"% activation of cAMP": "%", "EC50 (nMol), cAMP": "nmol"}, "values": [
      {"binder": "Ac-[dY]AEGTFISDYSIAMDAIHQQDFVNWLLAQK-NH2 (also: 1:1 TFA salt)", "% activation of cAMP": 100, "EC50 (nMol), cAMP": 0.0005},
      {"binder": "Ac-YAEGTFISDYSIAMDKIHQQDFVNWLLAQK-NH2 (also: 1:2 TFA salt)", "% activation of cAMP": 100},
      {"binder": "Ac-[dPhe(3,5-F2)]AEGTFISDYSIAMDKIHQQDFVNWLLAQK-NH2 (also: 1:2 TFA salt)", "% activation of cAMP": 99.6, "EC50 (nMol), cAMP": 0.003},
      {"binder": "Ac-[dPhe(4-Cl)]AEGTFISDYSIAMDKIHQQDFVNWLLAQK-NH2 (also: 1:2 TFA salt)", "% activation of cAMP": 106, "EC50 (nMol), cAMP": 0.025},
      {"binder": "Ac-[dY]AEGTFISDYSIAMDKIHQQDFVNWLLAQK-NH2 (also: 1:2 TFA salt)", "% activation of cAMP": 102, "EC50 (nMol), cAMP": 0.0007},
      {"binder": "B1", "% activation of cAMP": 102, "EC50 (nMol), cAMP": 0.08},
      {"binder": "Ac-[dPhe(2-Cl)]AEGTFISDYSIAMDKIHQQDFVNWLLAQK-NH2 (also: 1:2 TFA salt)", "% activation of cAMP": 104, "EC50 (nMol), cAMP": 0.121},
      {"binder": "[Hydrocinnamoyl]AEGTFISDYSIAMDKIHQQDFVNWLLAQK-NH2 (also: 1:2 TFA salt)", "% activation of cAMP": 101, "EC50 (nMol), cAMP": 0.797},
      {"binder": "Ac-[dPhe(3,4,5-F3)′]AEGTFISDYSIAMDKIHQQDFVNWLLAQK-NH2 (also: 1:2 TFA salt)", "% activation of cAMP": 100, "EC50 (nMol), cAMP": 0.104},
      {"binder": "Ac-[dY]AEGTFISDYSIAMDAIHQQDFVNWLLAQK([SSA-PEGm 30,000])-NH2", "% activation of cAMP": 101, "EC50 (nMol), cAMP": 0.0017},
      {"binder": "[Desaminotyrosyl]AEGTFISDYSIAMDKIHQQDFVNWLLAQK-NH2 (also: 1:2 TFA salt)", "% activation of cAMP": 103, "EC50 (nMol), cAMP": 0.095},
      {"binder": "Ac-[dW]AEGTFISDYSIAMDKIHQQDFVNWLLAQK-NH2 (also: 1:2 TFA salt)", "% activation of cAMP": 102, "EC50 (nMol), cAMP": 0.1},
      {"binder": "Ac-[dF]AEGTFISDYSIAMDKIHQQDFVNWLLAQK-NH2 (also: 1:2 TFA salt)", "% activation of cAMP": 102, "EC50 (nMol), cAMP": 0.685},
      {"binder": "Ac-[dPhe(2-F)]AEGTFISDYSIAMDKIHQQDFVNWLLAQK-NH2 (also: 1:2 TFA salt)", "% activation of cAMP": 99.8, "EC50 (nMol), cAMP": 0.0075},
      {"binder": "Ac-[dPhe(3-F)]AEGTFISDYSIAMDKIHQQDFVNWLLAQK-NH2 (also: 1:2 TFA salt)", "% activation of cAMP": 98, "EC50 (nMol), cAMP": 0.058},
      {"binder": "Ac-[dY]AEGTFISDYSIAMDAIHQQDFVNWLLAQK([SSA-PEGm 20,000])-NH2", "% activation of cAMP": 102, "EC50 (nMol), cAMP": 0.0049},
      {"binder": "Ac-[dPhe(3-Cl)]AEGTFISDYSIAMDKIHQQDFVNWLLAQK-NH2 (also: 1:2 TFA salt)", "% activation of cAMP": 106, "EC50 (nMol), cAMP": 0.072},
      {"binder": "Ac-[dY]AEGTFISDYSIAMDAIHQQDFVNWLLAQK([SSA-PEGm 12,000])-NH2", "% activation of cAMP": 100, "EC50 (nMol), cAMP": 0.0022}
    ]}
  ]
}
